Source: CN115819596A

Target: 食蟹猴CEACAM6蛋白 (cynomolgus CEACAM6 protein) (cynomolgus monkey)
Experiment: ELISA, plate-coated cynomolgus CEACAM6 protein

B1: UM05-L9 (antibody, human IgG1, kappa, V domains shown)
VH: QVQLQQSGPELVRPGVSVKISCKGSGYTFTDYAMHWVKQSHAKSLEWIGVISTYSGHTNYNQKFKGKAIMTVDKSSSTAYMDLARLTSEDSAIYYCVRGSTTAHYYTMDFWGQGTSVTVSS
VL: DIQMTQSPVSLSASVGETVTITCGASENIYGTLNWYQRKQGKSPQLLIYGATNLADGVSSRFSGSGSGRQYSLKISSLHPDDVATYYCQNVLSIPYTFGGGTKLEIKR
With B1 the EC50 was 0.463 nM.
